Legend:
G3BP1 = G3BP1 (UniProt Q13283)
anm1_human PRMT1 = anm1_human PRMT1 (UniProt Q99873)
Sequence of UniProt Q99873 (Q99873 whole entry, looked up): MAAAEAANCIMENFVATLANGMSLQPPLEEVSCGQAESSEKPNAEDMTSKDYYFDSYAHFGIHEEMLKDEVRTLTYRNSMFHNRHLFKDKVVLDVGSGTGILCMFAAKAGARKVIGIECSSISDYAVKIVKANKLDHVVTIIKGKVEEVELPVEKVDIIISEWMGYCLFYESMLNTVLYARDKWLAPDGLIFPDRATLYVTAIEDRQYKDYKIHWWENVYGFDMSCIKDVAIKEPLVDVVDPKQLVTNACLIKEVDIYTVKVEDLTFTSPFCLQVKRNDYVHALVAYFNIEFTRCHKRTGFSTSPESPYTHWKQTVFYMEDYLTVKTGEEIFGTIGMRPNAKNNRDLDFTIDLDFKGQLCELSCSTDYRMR

Sequence of UniProt Q13283 (Q13283 whole entry, looked up): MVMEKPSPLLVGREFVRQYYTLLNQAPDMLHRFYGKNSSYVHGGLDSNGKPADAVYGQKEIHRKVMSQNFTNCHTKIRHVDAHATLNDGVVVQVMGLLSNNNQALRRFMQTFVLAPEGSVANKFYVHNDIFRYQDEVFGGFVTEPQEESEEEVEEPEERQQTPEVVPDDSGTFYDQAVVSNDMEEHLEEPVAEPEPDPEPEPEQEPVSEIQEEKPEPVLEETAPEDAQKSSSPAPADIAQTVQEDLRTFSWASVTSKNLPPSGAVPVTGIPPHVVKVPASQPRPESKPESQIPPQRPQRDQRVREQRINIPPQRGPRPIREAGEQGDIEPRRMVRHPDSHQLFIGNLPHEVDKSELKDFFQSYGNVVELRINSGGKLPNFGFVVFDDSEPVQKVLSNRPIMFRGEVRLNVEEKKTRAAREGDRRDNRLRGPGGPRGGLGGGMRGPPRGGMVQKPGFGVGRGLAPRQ

Substance: Nucleoprotein (SARS-CoV-2) (from UniProt P0DTC9) R177K
- effect of a mutation on the interaction (G3BP1): with no effect

Substance: Nucleoprotein (SARS-CoV-2) (from UniProt P0DTC9) R68K
- effect of a mutation on the interaction (anm1_human PRMT1): with no effect

Substance: Nucleoprotein (SARS-CoV-2) (from UniProt P0DTC9) R203K
- effect of a mutation on the interaction (anm1_human PRMT1): with no effect
